Here are results for 10 molecules from patent US20190062422A1 (MorphoSys, published 2019).

The target in one test is T1, mouse IL-17B (mouse, UniProt Q9QXT6 23-180, limits assumed).
T1 sequence (looked up): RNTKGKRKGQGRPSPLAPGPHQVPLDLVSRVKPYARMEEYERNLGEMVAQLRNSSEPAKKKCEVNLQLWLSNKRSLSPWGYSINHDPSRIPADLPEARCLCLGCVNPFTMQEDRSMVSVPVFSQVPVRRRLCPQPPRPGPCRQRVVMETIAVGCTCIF
As to the kind of experiment: ELISA, purified chimeric human/mouse IgG2a on msIL-17B. In general terms: ELISA stands for enzyme-linked immunosorbent assay.

In test [1] the target is T2, mouse IL17C (mouse, UniProt Q8K4C5 17-194, limits assumed, biotinylated in the receptor interaction, inhibition and serum stability assays (sites not given)).
T2 construct: Bought recombinant protein; About 22 kDa reduced and about 40 kDa non-reduced on SDS-PAGE; Used plain (coated, ELISA) or biotinylated; also called biotinylated mouse IL17C; biotin-IL17C
T2 sequence (looked up): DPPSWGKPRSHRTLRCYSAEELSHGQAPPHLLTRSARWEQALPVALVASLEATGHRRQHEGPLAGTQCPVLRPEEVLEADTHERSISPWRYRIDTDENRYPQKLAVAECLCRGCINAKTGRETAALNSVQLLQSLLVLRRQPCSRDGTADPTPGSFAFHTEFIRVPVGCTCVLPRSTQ
As to the kind of experiment: ELISA on biotin-IL17C captured on avidin: chimeric IgG2a incubated 24 h at 37°C in mouse serum against freshly diluted IgG2a. The protocol:
96 well Maxisorp plates (Nunc; #442404) were coated with avidin at a concentration of 1 μg/ml in PBS overnight at 4° C. The next day, anti-IL17 chimeric IgG2a were incubated in mouse serum for 24 h at 37° C. at a final concentration 100 μg/mL. After the incubation step the antibodies were diluted 1:100 in LowCross buffer (Candor Bioscience; #100500). As a reference the same set of antibodies were freshly diluted in LowCross buffer+1% mouse serum and incubated for 30 min at RT. Avidin coated plates were incubated with blocking buffer (Superblock blocking buffer from Pierce, #37515) and subsequently 100 μL of 0.1 μg/mL biotin-IL17C in LowCross buffer was added to blocked wells. After a washing step a serial dilution of the serum-incubated and freshly diluted IgGs was added. Binding of IgGs was detected by anti-mouse-IgG2a POD conjugated detection antibody (diluted 1:5000 in LowCross buffer) using TMB One Component HRP as substrate. The reaction was stopped by adding 1M HCl and absorbance was measured at 450 nm.

For test [2], the target named is T2, mouse IL17C. As to the kind of experiment: mIL17C - mIL-17RE inhibition assay (MSD): human/mouse IgG2a pre-incubated with biotinylated mouse IL17C, binding to coated mouse IL17RE/Fc detected by Streptavidin-ECL. The protocol: To determine inhibitory activity of purified anti-IL17C human-mouse chimeric IgG2a in a mIL-17 RE interaction assay, Maxisorp™ 384 well MSD plates were coated with 30 μL mouse IL17RE/Fc at 75 ng/mL in PBS at 4° C. overnight. The next day 25 μL of a serial antibody dilution (concentrations from 0.001 to 100 nM) were pre-incubated for 30 min at RT with an equal volume of biotinylated mouse IL17C at 0.125 nM. After blocking of plates for 1 h with 2.5% BSA in PBST, preformed antibody-ligand complexes were added for 1 h to coated IL17RE/Fc and receptor binding was detected via Streptavidin-ECL using MSD Sector Imager.
To characterize the antibodies in human/mouse IgG2a format in more detail, for each candidate IC₅₀ values were determined in the IL-17 receptor E inhibition assay as described herein above in up to 4 independent experiments.

The target in test [3] is T2, mouse IL17C. As to the kind of experiment: ELISA, purified chimeric human/mouse IgG2a titrated on mouse IL17C, n=1-2. The protocol: All purified chimeric human-mouse chimeric IgG2a antibodies were titrated on mouse IL17C for EC₅₀ determination in ELISA starting with a concentration of 100 nM. EC₅₀ values on mouse IL17C were determined in 1 to 3 independent experiments.

A further test has as its target T3, human IL17C (human, UniProt Q9P0M4 19-197).
T3 sequence: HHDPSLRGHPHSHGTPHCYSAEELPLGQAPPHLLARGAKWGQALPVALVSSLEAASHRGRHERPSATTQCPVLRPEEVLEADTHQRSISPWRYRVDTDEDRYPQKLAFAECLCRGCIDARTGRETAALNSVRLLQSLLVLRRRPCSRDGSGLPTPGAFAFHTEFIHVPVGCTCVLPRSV
As to the kind of experiment: ELISA, purified chimeric human/mouse IgG2a on huIL-17C.

Test [4] has as its target T2, mouse IL17C. As to the kind of experiment: solution equilibrium titration (SET), ECL based, monovalent Fab fragment (Fab_FH format). The protocol: Monovalent affinities of anti-IL17C antibodies were determined by solution equilibrium titration (SET) using Fab fragments. Affinity determination in solution was basically performed as described in the literature (Friquet et al., (1985) J. Immunol. Meth. 77: 305-19). In order to improve the sensitivity and accuracy of the SET method, it was transferred from classical ELISA to ECL based technology (Haenel et al. (2005) Anal Biochem. 339.1: 182-84). Binders were expressed and purified in Fab_FH format.

What is called IC50 is the concentration that gives 50% inhibition. High values mean lower potency, low ones higher potency. By EC50 is commonly meant the concentration that produces a half-maximal response. As a reminder, the Kd is the equilibrium constant for the complex coming apart. A low value points to higher affinity.

B1: MOR12751 (antibody, V domains shown)
VH: QVQLQQSGPGLVKPSQTLSLTCAISGDSVSSNSAAWNWIRQSPSRGLEWLGVIYYRSKWYINYADSVKSRITINPDTSKNQFSLQLNSVTPEDTAVYYCAREGIVGGWFAYWGQGTLVTVSS
VL: DIELTQPPSVSVSPGQTASITCSGDKLGSKIAHWYQQKPGQAPVLVIYDDNERPSGIPERFSGSNSGNTATLTISGTQAEDEADYYCQSWDYLSWSVVFGGGTKLTVL
notes: Tested as human-mouse chimeric IgG2a (human variable, mouse constant regions); Potential N-linked glycosylation sites were removed by site-directed mutagenesis
As for B1, the binding result with mouse IL-17B and with human IL17C was “no binding” throughout. The “Coefficient of variation (Mouse Serum Stability Assay 24h/37°C)” value (from here on “Coefficient of variation”) with mouse IL17C [1] is 3.75%. The molecule further came in with an IC50 with mouse IL17C [2] of 0.16 nM. The EC50 with mouse IL17C [3] worked out at 0.39 nM.

B2: MOR12759 (antibody, V domains shown)
VH: EVQLVQSGAEVKKPGESLKISCKGSGYSFNNYWIAWVRQMPGKGLEWMGFIYPSNSATQYSPSFQGQVTISADKSISTAYLQWSSLKASDTAMYYCARDNEYSDSYFDVWGQGTLVTVSS
VL: DIVLTQSPATLSLSPGERATLSCRASQIVSSYLAWYQQKPGQAPRLLIYDASSRATGIPARFSGSGSGTDFTLTISSLEPEDFAVYYCQQSVNFPTTFGQGTKVEIKR
notes: as for B1
B2: the binding result in the test with mouse IL-17B and in the test with human IL17C was “no binding” each time. Further, in the test with mouse IL17C [1], the “Coefficient of variation” value was 8.8%. The IC50 with mouse IL17C [2] was found to be 0.028 nM. In addition, in the test with mouse IL17C [3], the midpoint of the response, the EC50, lay at 0.29 nM. In the test with mouse IL17C [4], the Kd is 0.22 nM.

B3: MOR12760 (antibody, V domains shown)
VH: EVQLVQSGAEVKKPGESLKISCKGSGYSFNNYWIAWVRQMPGKGLEWMGFIYPSNSATQYSPSFQGQVTISADKSISTAYLQWSSLKASDTAMYYCARDNEYSDSYFDVWGQGTLVTVSS
VL: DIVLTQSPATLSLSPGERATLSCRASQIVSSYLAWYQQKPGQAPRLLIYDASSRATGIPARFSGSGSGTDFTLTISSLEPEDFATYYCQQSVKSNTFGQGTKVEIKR
notes: as for B1
Turning to B3, the binding result in the test with mouse IL-17B and with human IL17C was “no binding” in each case. Further, the “Coefficient of variation” value with mouse IL17C [1] stood at 35.3%. In addition, the IC50 with mouse IL17C [2] was found to be 0.122 nM. Further, the EC50 with mouse IL17C [3] stood at 0.27 nM.

B4: MOR12762 (antibody, V domains shown)
VH: EVQLVQSGAEVKKPGESLKISCKGSGYSFNNYWIAWVRQMPGKGLEWMGFIYPSNSATQYSPSFQGQVTISADKSISTAYLQWSSLKASDTAMYYCARDNEYSDSYFDVWGQGTLVTVSS
VL: DIVLTQSPATLSLSPGERATLSCRASQIVSSYLAWYQQKPGQAPRLLIYDASSRATGIPARFSGSGSGTDFTLTISSLEPEDFAVYYCQQSEQVPTTFGQGTKVEIKR
notes: as for B1
With B4, the binding result with mouse IL-17B and with human IL17C was “no binding” in each case. The “Coefficient of variation” value in the test with mouse IL17C [1] came to 2.43%. Also, the IC50 in the test with mouse IL17C [2] is 0.009 nM. In the test with mouse IL17C [3], this molecule returned an EC50 of 0.4 nM. The Kd in the test with mouse IL17C [4] was determined as 0.096 nM.

B5: MOR12756 (antibody, V domains shown)
VH: QVQLQQSGPGLVKPSQTLSLTCAISGDSVSDNSVAWNWIRQSPSRGLEWLGRIYYRSKWYNDYAVSVKSRITINPDTSKNQFSLQLNSVTPEDTAVYYCAREVLLFPARSYGTGMDVWGQGTLVTVSS
VL: DIELTQPPSVSVSPGQTASITCSGDNLPSKYVHWYQQKPGQAPVLVIYDDNERPSGIPERFSGSNSGNTATLTISGTQAEDEADYYCGVADMPRQMKVFGGGTKLTVLG
notes: as for B1
With B5, in the test with mouse IL17C [4], the binding result is recorded as “no binding”.

B6: MOR12755 (antibody, V domains shown)
VH: QVQLQQSGPGLVKPSQTLSLTCAISGDSVSSNSAAWNWIRQSPSRGLEWLGKTYYRSTWSNDYAESVKSRITINPDTSKNQFSLQLNSVTPEDTAVYYCAREMDSLTRSASSIAFDYWGQGTLVTVSS
VL: DIELTQPPSVSVSPGQTASITCSGDNLREHYVHWYQQKPGQAPVLVIYDDTERPSGIPERFSGSNSGNTATLTISGTQAEDEADYYCATRDWSNVVFGGGTKLTVLG
notes: as for B1
Regarding B6, the binding result with mouse IL17C [4] is reported as “no binding”.

B7: MOR12757 (antibody, V domains shown)
VH: EVQLLESGGGLVQPGGSLRLSCAASGFTFSSYAMSWVRQAPGKGLEWVSFISSGGSETFYADSVKGRFTISRDNSKNTLYLQMNSLRAEDTAVYYCARVSYIYYYSWVLFDVWGQGTLVTVSS
VL: DIQMTQSPSSLSASVGDRVTITCRASQGIGTALNWYQQKPGKAPKLLIYDVSSLQSGVPSRFSGSGSGTDFTLTISSLQPEDFATYYCQQGLFLPFTFGQGTKVEIKR
notes: as for B1
Take B7: the binding result in the test with mouse IL17C [4] is listed as “no binding”.

B8: MOR12740 (antibody, V domains shown)
VH: QVQLVQSGAEVKKPGSSVKVSCKASGGTFSIYAISWVRQAPGQGLEWMGGIIPILGIANYAQKFQGRVTITADESTSTAYMELSSLRSEDTAVYYCARDATHSYYHDYWGQGTLVTVSS
VL: DIALTQPASVSGSPGQSITISCTGTSSDVGSYETVSWYQQHPGKAPKVMIYEVSDRPSGVSNRFSGSKSGNTASLTISGLQAEDEADYYCGSFAHWGSWVFGGGTKLTVLG
notes: as for B1
Regarding B8, the binding result in the test with mouse IL-17B and with human IL17C was “no binding” throughout. In the test with mouse IL17C [2], this molecule came in with an IC50 of 3.49 nM. For the same molecule, the EC50 with mouse IL17C [3] is 1.14 nM. The molecule also showed a Kd in the test with mouse IL17C [4] of 0.17 nM.

B9: MOR12758 (antibody, V domains shown)
VH: EVQLVQSGAEVKKPGESLKISCKGSGYSFTDYWISWVRQMPGKGLEWMGAIDPTDSYTRYSPSFQGQVTISADKSISTAYLQWSSLKASDTAMYYCARWYTSHPYYEGRYPMDVWGQGTLVTVSS
VL: DIALTQPASVSGSPGQSITISCTGTSSDVGHYNYVSWYQQHPGKAPKLMIYGVTKRPSGVSNRFSGSKSGNTASLTISGLQAEDEADYYCASADEWPTLHVFGGGTKLTVLG
notes: as for B1
B9: the binding result in the test with mouse IL17C [4] is recorded as “no binding”.

B10: MOR12741 (antibody, V domains shown)
VH: QVQLVQSGAEVKKPGSSVKVSCKASGGTFSSYAISWVRQAPGQGLEWMGMIMPEVGMADYAQKFQGRVTITADESTSTAYMELSSLRSEDTAVYYCARDFIAVGSLEIWHYYYGLDVWGQGTLVTVSS
VL: DIELTQPPSVSVSPGQTASITCSGDNIGEHYASWYQQKPGQAPVLVISYDNERPSGIPERFSGSNSGNTATLTISGTQAEDEADYYCQSWTSQKPDYVFGGGTKLTVLG
notes: as for B1
With B10, the binding result in the test with mouse IL-17B and with human IL17C was “no binding” throughout. The “Coefficient of variation” value with mouse IL17C [1] came to 13%. The EC50 in the test with mouse IL17C [3] was determined as 0.47 nM.
